The text below walks through data of publication PMC9009071, “Pyruvate kinase, a metabolic sensor powering glycolysis, drives the metabolic control of DNA replication” (BMC Biology, 2022).

Data set [1] has as its target T1, PykA (Bacillus subtilis, UniProt P80885).
T1 construct: gene pyk; full length, 585 residues (1755 bp); N-terminal His-MBP tag removed by TEV; E. coli Rosetta(DE3); homotetramer
T1 sequence (P80885 2-585): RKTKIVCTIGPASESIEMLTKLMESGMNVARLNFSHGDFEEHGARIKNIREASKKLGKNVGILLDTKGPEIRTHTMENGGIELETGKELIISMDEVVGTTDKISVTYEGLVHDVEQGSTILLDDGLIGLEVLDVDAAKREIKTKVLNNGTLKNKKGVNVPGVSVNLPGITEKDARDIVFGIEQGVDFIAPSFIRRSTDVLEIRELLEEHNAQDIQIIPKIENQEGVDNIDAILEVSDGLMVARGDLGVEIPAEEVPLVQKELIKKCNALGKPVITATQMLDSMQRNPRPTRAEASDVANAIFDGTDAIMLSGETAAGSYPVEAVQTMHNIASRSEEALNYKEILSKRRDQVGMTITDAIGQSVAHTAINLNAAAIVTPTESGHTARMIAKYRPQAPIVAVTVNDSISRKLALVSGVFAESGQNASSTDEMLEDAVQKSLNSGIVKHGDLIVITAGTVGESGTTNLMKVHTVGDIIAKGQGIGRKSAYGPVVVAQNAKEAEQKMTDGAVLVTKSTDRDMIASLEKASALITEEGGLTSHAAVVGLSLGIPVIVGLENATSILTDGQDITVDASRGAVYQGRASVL
In words: LDH-coupled NADH oxidation at […] nm, Michaelis-Menten fit. It is filed as biochemical. To be noted: 2 mM ADP, 10 mM MgCl2, 50 mM KCl, 10 mM Tris-HCl pH 7.5, 25 °C; no effector added.

Data set [2] deals with the molecule itself. In words: native MS; purified PykA, 4 uM, in 200 mM ammonium acetate pH 6.8; nano-electrospray on a modified Q-Tof; self-association (tetramer).
The target of data set [3] is T2, PykA (pyruvate kinase) (Bacillus subtilis, UniProt P80885 1-585).
T2 sequence: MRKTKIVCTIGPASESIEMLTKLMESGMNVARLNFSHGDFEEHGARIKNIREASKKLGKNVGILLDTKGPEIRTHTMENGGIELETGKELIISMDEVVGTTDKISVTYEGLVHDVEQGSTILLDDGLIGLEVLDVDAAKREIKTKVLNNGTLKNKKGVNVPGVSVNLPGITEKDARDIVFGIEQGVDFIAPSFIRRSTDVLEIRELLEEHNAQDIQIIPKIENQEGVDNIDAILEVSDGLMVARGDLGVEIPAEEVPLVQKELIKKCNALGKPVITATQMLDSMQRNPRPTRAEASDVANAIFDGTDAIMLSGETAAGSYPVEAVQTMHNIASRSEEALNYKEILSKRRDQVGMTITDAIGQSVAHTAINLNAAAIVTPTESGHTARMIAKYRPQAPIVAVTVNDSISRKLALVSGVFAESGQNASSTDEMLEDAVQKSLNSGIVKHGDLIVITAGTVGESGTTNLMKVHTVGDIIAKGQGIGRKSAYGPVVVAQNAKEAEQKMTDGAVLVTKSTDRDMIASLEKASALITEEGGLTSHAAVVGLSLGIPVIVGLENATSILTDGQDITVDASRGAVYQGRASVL
Description: EMSA; 1,250 nM PykA tetramer, 1 nM DNA, 10 mM Mg2+, no DnaE; EMSA: 50 mM Tris-HCl pH 7.5, 50 mM NaCl, 10 mM MgCl2, 10 min at 37 °C, 1 nM DNA. To be noted: protein: recombinant; tags: none (N-terminal His-MBP removed by TEV); chain copies: 4; label: 5'-32P on the 15mer; 15mer pairs with the 3' half of the 30mer; template 5' overhang 15 nt. (Mobility shift assays separate free from complexed probe on a gel.)

Substrate in data set [4]: C=C(OP(=O)(O)O)C(=O)O
In words: purified protein. The class given is biochemical, Bacillus subtilis. To be noted: 2 mM ADP, 10 mM MgCl2, 50 mM KCl, 10 mM Tris-HCl pH 7.5, 25 °C, no effector added, Hill coefficient n = 0.8111.

On to `C=C(OP(=O)(O)O)C(=O)O` [PEP], for which the Km (as a rule, the substrate concentration at which the rate is half of its maximum) in data set [1] is 1700 µM.

B1: Bacillus subtilis pyruvate kinase PykA (enzyme, UniProt P80885 1-585, looked up)
chain: MRKTKIVCTIGPASESIEMLTKLMESGMNVARLNFSHGDFEEHGARIKNIREASKKLGKNVGILLDTKGPEIRTHTMENGGIELETGKELIISMDEVVGTTDKISVTYEGLVHDVEQGSTILLDDGLIGLEVLDVDAAKREIKTKVLNNGTLKNKKGVNVPGVSVNLPGITEKDARDIVFGIEQGVDFIAPSFIRRSTDVLEIRELLEEHNAQDIQIIPKIENQEGVDNIDAILEVSDGLMVARGDLGVEIPAEEVPLVQKELIKKCNALGKPVITATQMLDSMQRNPRPTRAEASDVANAIFDGTDAIMLSGETAAGSYPVEAVQTMHNIASRSEEALNYKEILSKRRDQVGMTITDAIGQSVAHTAINLNAAAIVTPTESGHTARMIAKYRPQAPIVAVTVNDSISRKLALVSGVFAESGQNASSTDEMLEDAVQKSLNSGIVKHGDLIVITAGTVGESGTTNLMKVHTVGDIIAKGQGIGRKSAYGPVVVAQNAKEAEQKMTDGAVLVTKSTDRDMIASLEKASALITEEGGLTSHAAVVGLSLGIPVIVGLENATSILTDGQDITVDASRGAVYQGRASVL
notes: Pyruvate kinase PykA of Bacillus subtilis; 1755 bp fragment carrying the pykA gene amplified from genomic DNA and cloned in p2CT; theoretical monomer mass 62,314.9 Da; The forward primer PyKAF starts at the codon for Arg2 (AGA AAA ACT ...), so the first methionine is probably absent; A few vector residues probably remain after TEV cleavage; also called full length PykA; BsuPykA; source: E. coli …
B1: the stoichiometry N (commonly a count of units in the complex or per binding partner) in data set [2] amounted to 4.

B2: 15mer primer annealed to 30mer template (dsDNA)
DNA 1: AAGGGGGTGTGTGTG
DNA 2: ACACACACACACACACACACACACCCCCTT
Turning to B2, in data set [3], the binding result is recorded as “no binding”.

B3: PykA (Bacillus subtilis subsp. subtilis str. 168) (protein)
chain: RKTKIVCTIGPASESIEMLTKLMESGMNVARLNFSHGDFEEHGARIKNIREASKKLGKNVGILLDTKGPEIRTHTMENGGIELETGKELIISMDEVVGTTDKISVTYEGLVHDVEQGSTILLDDGLIGLEVLDVDAAKREIKTKVLNNGTLKNKKGVNVPGVSVNLPGITEKDARDIVFGIEQGVDFIAPSFIRRSTDVLEIRELLEEHNAQDIQIIPKIENQEGVDNIDAILEVSDGLMVARGDLGVEIPAEEVPLVQKELIKKCNALGKPVITATQMLDSMQRNPRPTRAEASDVANAIFDGTDAIMLSGETAAGSYPVEAVQTMHNIASRSEEALNYKEILSKRRDQVGMTITDAIGQSVAHTAINLNAAAIVTPTESGHTARMIAKYRPQAPIVAVTVNDSISRKLALVSGVFAESGQNASSTDEMLEDAVQKSLNSGIVKHGDLIVITAGTVGESGTTNLMKVHTVGDIIAKGQGIGRKSAYGPVVVAQNAKEAEQKMTDGAVLVTKSTDRDMIASLEKASALITEEGGLTSHAAVVGLSLGIPVIVGLENATSILTDGQDITVDASRGAVYQGRASVL
notes: full length, 585 residues (1755 bp); N-terminal His-MBP tag removed by TEV; E. coli Rosetta(DE3); homotetramer
As for B3, the K0.5 in data set [4] is on record as 2.7 mM.
